One block for each binder: values may come before it.
Tests used:
Assay in all cases: cell-based or functional assay
human PD-L1 on cells = human PD-L1 on cells (human, UniProt Q9NZQ7 19-290)
[1] = biological target: T1, CD137 on Jurkat NFkB reporter cells (human, UniProt Q07011 24-255)
[2] = biological target: T1, CD137 on Jurkat NFkB reporter cells; remark: listed apart in the source
[3] = biological target: T1, CD137 on Jurkat NFkB reporter cells; remark: listed apart in the source
[4] = biological target: T1, CD137 on Jurkat NFkB reporter cells; remark: listed apart in the source

B1: PRO830 (scFv)
scFv: DIQMTQSPSSLSASVGDRVTITCQASQSINDYLAWYQQKPGKAPKLLIYKASTLASGVPSRFSGSGSGTDFTLTISSLQPEDFATYYCQQGYIITDIDNVFGTGTKVTVLGGGGGSGGGGSGGGGSGGGGSQVQLQESGPGLVKPSETLSLTCKVSGFSFSSGYDMCWIRQPPGKGLEWIGCVVAGSVDITYYASWAKGRVTISVDSSKNQFSLKLSSVTAADTAVYYCARKDAYSDAFNLWGQGTLVTVSS
IC50, NFAT-luciferase reporter gene assay (human PD-L1 on cells): 0.0429 µg/mL

B4: PRO963 (other)
chain: DIQMTQSPSSLSASVGDRVTITCQASQSINDYLAWYQQKPGKAPKLLIYKASTLASGVPSRFSGSGSGTDFTLTISSLQPEDFATYYCQQGYIITDIDNVFGTGTKVTVLGGGGGSQVQLQESGPGLVKPSETLSLTCKVSGFSFSNSYWICWIRQPPGKGLEWIGCTFVGSSDSTYYANWAKGRVTISVDSSKNQFSLKLSSVTAADTAVYYCARHPSDAVYGYANNLWGQGTLVTVSSGGGGSGGGGSGGGGSGGGGSIQMTQSPSSLSASVGDRVTITCQASQSINNVLAWYQQKPGKAPKLLIYRASTLASGVPSRFSGSGSGTDFTLTISSLQPEDFATYYCQSSYGNYGDFGTGTKVTVLGGGGGSQVQLQESGPGLVKPSETLSLTCKVSGFSFSSGYDMCWIRQPPGKGLEWIGCVVAGSVDITYYASWAKGRVTISVDSSKNQFSLKLSSVTAADTAVYYCARKDAYSDAFNLWGQGTLVTVSSGGGGSGGGGSIQMTQSPSSLSASVGDRVTITCQSSESVYSNNQLSWYQQKPGQPPKLLIYDASDLASGVPSRFSGSGSGTDFTLTISSLQPEDFATYYCAGGFSSSSDTAFGGGTKLTVLGGGGGSGGGGSGGGGSGGGGSEVQLVESGGGLVQPGGSLRLSCAASGFSLSSNAMGWVRQAPGKGLEYIGIISVGGFTYYASWAKGRFTISRDNSKNTVYLQMNSLRAEDTATYFCARDRHGGDSSGAFYLWGQGTLVTVSS
IC50, NFAT-luciferase reporter gene assay, with HSA (human PD-L1 on cells): 0.275 µg/mL
max. activation (%), NF-kB reporter, CHO-PD-L1, HSA yes, 24h [3]: 369%

B5: PRO1059 (bispecific antibody, human IgG1, kappa, L234A L235A)
light: DIQMTQSPSSLSASVGDRVTITCQASQSINDYLAWYQQKPGKAPKLLIYKASTLASGVPSRFSGSGSGTDFTLTISSLQPEDFATYYCQQGYIITDIDNVFGTGTKVTVLGTVAAPSVFIFPPSDEQLKSGTASVVCLLNNFYPREAKVQWKVDNALQSGNSQESVTEQDSKDSTYSLSSTLTLSKADYEKHKVYACEVTHQGLSSPVTKSFNRGECGGGGSGGGGSIQMTQSPSSLSASVGDRVTITCQASQSINNVLAWYQQKPGKAPKLLIYRASTLASGVPSRFSGSGSGTDFTLTISSLQPEDFATYYCQSSYGNYGDFGTGTKVTVLGGGGGSGGGGSGGGGSGGGGSQVQLQESGPGLVKPSETLSLTCKVSGFSFSNSYWICWIRQPPGKGLEWIGCTFVGSSDSTYYANWAKGRVTISVDSSKNQFSLKLSSVTAADTAVYYCARHPSDAVYGYANNLWGQGTLVTVSS
heavy: QVQLQESGPGLVKPSETLSLTCKVSGFSFSSGYDMCWIRQPPGKGLEWIGCVVAGSVDITYYASWAKGRVTISVDSSKNQFSLKLSSVTAADTAVYYCARKDAYSDAFNLWGQGTLVTVSSASTKGPSVFPLAPSSKSTSGGTAALGCLVKDYFPEPVTVSWNSGALTSGVHTFPAVLQSSGLYSLSSVVTVPSSSLGTQTYICNVNHKPSNTKVDKRVEPKSCDKTHTCPPCPAPEAAGGPSVFLFPPKPKDTLMISRTPEVTCVVVDVSHEDPEVKFNWYVDGVEVHNAKTKPREEQYNSTYRVVSVLTVLHQDWLNGKEYKCKVSNKALGAPIEKTISKAKGQPREPQVYTLPPSREEMTKNQVSLTCLVKGFYPSDIAVEWESNGQPENNYKTTPPVLDSDGSFFLYSKLTVDKSRWQQGNVFSCSVMHEALHNHYTQKSLSLSPGK
IC50, NFAT-luciferase reporter gene assay (human PD-L1 on cells): 0.0938 µg/mL

Further lines, results first:

EC50, NFkB-luciferase reporter, PD-L1 expressing CHO cells, 6h, + HSA [1]: 0.0709 µg/mL
EC50, NFkB-luciferase reporter, PD-L1 expressing CHO cells, 24h, + HSA [2]: 0.121 µg/mL
max. activation (%), NF-kB reporter, CHO-PD-L1, HSA yes, 24h [3]: 36.2%
B2: PRO1058 (other)
chain: DIQMTQSPSSLSASVGDRVTITCQASQSINDYLAWYQQKPGKAPKLLIYKASTLASGVPSRFSGSGSGTDFTLTISSLQPEDFATYYCQQGYIITDIDNVFGTGTKVTVLGGGGGSQVQLQESGPGLVKPSETLSLTCKVSGFSFNNDYDMCWIRQPPGKGLEWIGCIDTGDGSTYYASWAKGRVTISVDSSKNQFSLKLSSVTAADTAVYYCAREAASSSGYGMGYFDLWGQGTLVTVSSGGGGSGGGGSGGGGSGGGGSIQMTQSPSSLSASVGDRVTITCQSSQSVYDNNWLAWYQQKPGKAPKLLIYRASNLASGVPSRFSGSGSGTDFTLTISSLQPEDFATYYCQGTYLSSNWYWAFGTGTKVTVLGGGGGSQVQLQESGPGLVKPSETLSLTCKVSGFSFSSGYDMCWIRQPPGKGLEWIGCVVAGSVDITYYASWAKGRVTISVDSSKNQFSLKLSSVTAADTAVYYCARKDAYSDAFNLWGQGTLVTVSSGGGGSGGGGSVVMTQSPSSLSASVGDRVTITCQASQIISSRSAWYQQKPGQPPKLLIYQASKLASGVPSRFSGSGSGTDFTLTISSLQPEDFATYYCQCTYIDSNFGAFGGGTKLTVLGGGGGSGGGGSGGGGSGGGGSEVQLVESGGGLVQPGGSLRLSCAASGFSFSSSYWICWVRQAPGKGLEWVGCVFTGDGTTYYASWAKGRFTISRDNSKNTVYLQMNSLRAEDTATYFCARPVSVYYYGMDLWGQGTLVTVSS

IC50, NFAT-luciferase reporter gene assay (human PD-L1 on cells): 0.0213 µg/mL
B3: PRO1013 (scFv)
scFv: DIQMTQSPSSLSASVGDRVTITCQASQSIGTYLAWYQQKPGKAPKLLIYRAFILASGVPSRFSGSGSGTDFTLTISSLQPEDFATYYCQSNFYSDSTTIGPNAFGTGTKVTVLGGGGGSGGGGSGGGGSGGGGSQVQLVQSGAEVKKPGASVKVSCKASGFSFNSDYWIYWVRQAPGQGLEWMGSIYGGSSGNTQYASWAQGRVTMTRDTSISTAYMELSSLRSEDTAVYYCARGYVDYGGATDLWGQGTLVTVSS

IC50, NFAT-luciferase reporter gene assay, with HSA (human PD-L1 on cells): 0.665 µg/mL
EC50, NFkB-luciferase reporter, PD-L1 expressing CHO cells, 6h, + HSA [1]: 0.112 µg/mL
EC50, NFkB-luciferase reporter, PD-L1 expressing CHO cells, 24h, + HSA [2]: 0.792 µg/mL
EC50, NFkB-luciferase reporter, HCC827 with IFNy stimulation, 24h, +HSA [4]: 0.115 µg/mL
EC50, NFkB-luciferase reporter, HCC827 without IFNy stimulation, 24h, +HSA [4]: 0.0766 µg/mL
max. activation (%), NF-kB reporter, CHO-PD-L1, HSA yes, 24h [3]: 663%
B6: PRO1057 (other)
chain: DIQMTQSPSSLSASVGDRVTITCQASQSINDYLAWYQQKPGKAPKLLIYKASTLASGVPSRFSGSGSGTDFTLTISSLQPEDFATYYCQQGYIITDIDNVFGTGTKVTVLGGGGGSQVQLQESGPGLVKPSETLSLTCKVSGFSFSNSYWICWIRQPPGKGLEWIGCTFVGSSDSTYYANWAKGRVTISVDSSKNQFSLKLSSVTAADTAVYYCARHPSDAVYGYANNLWGQGTLVTVSSGGGGSGGGGSGGGGSGGGGSIQMTQSPSSLSASVGDRVTITCQASQSINNVLAWYQQKPGKAPKLLIYRASTLASGVPSRFSGSGSGTDFTLTISSLQPEDFATYYCQSSYGNYGDFGTGTKVTVLGGGGGSQVQLQESGPGLVKPSETLSLTCKVSGFSFSSGYDMCWIRQPPGKGLEWIGCVVAGSVDITYYASWAKGRVTISVDSSKNQFSLKLSSVTAADTAVYYCARKDAYSDAFNLWGQGTLVTVSSGGGGSGGGGSVVMTQSPSSLSASVGDRVTITCQASQIISSRSAWYQQKPGQPPKLLIYQASKLASGVPSRFSGSGSGTDFTLTISSLQPEDFATYYCQCTYIDSNFGAFGGGTKLTVLGGGGGSGGGGSGGGGSGGGGSEVQLVESGGGLVQPGGSLRLSCAASGFSFSSSYWICWVRQAPGKGLEWVGCVFTGDGTTYYASWAKGRFTISRDNSKNTVYLQMNSLRAEDTATYFCARPVSVYYYGMDLWGQGTLVTVSS

IC50, NFAT-luciferase reporter gene assay (human PD-L1 on cells): 0.133 µg/mL
EC50, NFkB-luciferase reporter, PD-L1 expressing CHO cells, 6h [1]: 0.0564 µg/mL
EC50, NFkB-luciferase reporter, PD-L1 expressing CHO cells, 24h [2]: 0.0808 µg/mL
EC50, NFkB-luciferase reporter, HCC827 with IFNy stimulation, 24h [4]: 0.0175 µg/mL
EC50, NFkB-luciferase reporter, HCC827 without IFNy stimulation, 24h [4]: 0.0136 µg/mL
B7: PRO1060 (bispecific antibody, human IgG1, kappa, L234A L235A)
light: DIQMTQSPSSLSASVGDRVTITCQASQSINDYLAWYQQKPGKAPKLLIYKASTLASGVPSRFSGSGSGTDFTLTISSLQPEDFATYYCQQGYIITDIDNVFGTGTKVTVLGTVAAPSVFIFPPSDEQLKSGTASVVCLLNNFYPREAKVQWKVDNALQSGNSQESVTEQDSKDSTYSLSSTLTLSKADYEKHKVYACEVTHQGLSSPVTKSFNRGEC
heavy: QVQLQESGPGLVKPSETLSLTCKVSGFSFSSGYDMCWIRQPPGKGLEWIGCVVAGSVDITYYASWAKGRVTISVDSSKNQFSLKLSSVTAADTAVYYCARKDAYSDAFNLWGQGTLVTVSSASTKGPSVFPLAPSSKSTSGGTAALGCLVKDYFPEPVTVSWNSGALTSGVHTFPAVLQSSGLYSLSSVVTVPSSSLGTQTYICNVNHKPSNTKVDKRVEPKSCDKTHTCPPCPAPEAAGGPSVFLFPPKPKDTLMISRTPEVTCVVVDVSHEDPEVKFNWYVDGVEVHNAKTKPREEQYNSTYRVVSVLTVLHQDWLNGKEYKCKVSNKALGAPIEKTISKAKGQPREPQVYTLPPSREEMTKNQVSLTCLVKGFYPSDIAVEWESNGQPENNYKTTPPVLDSDGSFFLYSKLTVDKSRWQQGNVFSCSVMHEALHNHYTQKSLSLSPGKGGGGSGGGGSIQMTQSPSSLSASVGDRVTITCQASQSINNVLAWYQQKPGKAPKLLIYRASTLASGVPSRFSGSGSGTDFTLTISSLQPEDFATYYCQSSYGNYGDFGTGTKVTVLGGGGGSGGGGSGGGGSGGGGSQVQLQESGPGLVKPSETLSLTCKVSGFSFSNSYWICWIRQPPGKGLEWIGCTFVGSSDSTYYANWAKGRVTISVDSSKNQFSLKLSSVTAADTAVYYCARHPSDAVYGYANNLWGQGTLVTVSS

From patent publication EP3470426A1 (Numab Therapeutics AG, dated 2019)
